# From publication PMC7393355, “A FRET-based screening method to detect potential inhibitors of the binding of CNNM3 to PRL2” (Scientific Reports, 2020)
# What was measured:
# [1] = biological target: CNNM3 CBS domain (residues 301-452) with YPet at its C-terminus (UniProt Q8NE01); assay: FRET competition (inhibition) assay; settings: CNNM3-YPet 200 nM, CyPet-PRL2 200 nM, pre-incubation 20 min at R.T., control without competitor est. 98%, n = 6, read off a plot
# [2] = biological target: PRL3 (Homo sapiens) (UniProt O75365); settings: cited from earlier work
# PRL3 (Homo sapiens), sequence (O75365 1-170 C104E): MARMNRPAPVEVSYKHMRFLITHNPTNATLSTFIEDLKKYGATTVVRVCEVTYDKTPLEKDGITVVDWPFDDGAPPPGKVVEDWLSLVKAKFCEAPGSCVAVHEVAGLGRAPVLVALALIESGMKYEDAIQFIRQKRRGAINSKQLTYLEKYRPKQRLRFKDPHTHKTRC
# CNNM3 CBS domain (residues 301-452) with YPet at its C-terminus, sequence (Q8NE01 301-452): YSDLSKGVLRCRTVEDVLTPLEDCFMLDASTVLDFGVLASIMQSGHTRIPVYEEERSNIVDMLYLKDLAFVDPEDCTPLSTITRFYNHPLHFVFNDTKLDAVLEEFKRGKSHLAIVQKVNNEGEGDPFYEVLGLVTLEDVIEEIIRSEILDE
# non-fluorescence protein-tagged PRL2, sequence (Q12974 whole entry, stated change not applied): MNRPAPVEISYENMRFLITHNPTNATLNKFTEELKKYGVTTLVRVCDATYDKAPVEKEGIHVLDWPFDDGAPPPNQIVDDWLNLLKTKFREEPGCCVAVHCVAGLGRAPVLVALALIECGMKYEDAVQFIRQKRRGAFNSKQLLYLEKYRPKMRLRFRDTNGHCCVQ
# CNNM3, sequence (Q8NE01 whole entry): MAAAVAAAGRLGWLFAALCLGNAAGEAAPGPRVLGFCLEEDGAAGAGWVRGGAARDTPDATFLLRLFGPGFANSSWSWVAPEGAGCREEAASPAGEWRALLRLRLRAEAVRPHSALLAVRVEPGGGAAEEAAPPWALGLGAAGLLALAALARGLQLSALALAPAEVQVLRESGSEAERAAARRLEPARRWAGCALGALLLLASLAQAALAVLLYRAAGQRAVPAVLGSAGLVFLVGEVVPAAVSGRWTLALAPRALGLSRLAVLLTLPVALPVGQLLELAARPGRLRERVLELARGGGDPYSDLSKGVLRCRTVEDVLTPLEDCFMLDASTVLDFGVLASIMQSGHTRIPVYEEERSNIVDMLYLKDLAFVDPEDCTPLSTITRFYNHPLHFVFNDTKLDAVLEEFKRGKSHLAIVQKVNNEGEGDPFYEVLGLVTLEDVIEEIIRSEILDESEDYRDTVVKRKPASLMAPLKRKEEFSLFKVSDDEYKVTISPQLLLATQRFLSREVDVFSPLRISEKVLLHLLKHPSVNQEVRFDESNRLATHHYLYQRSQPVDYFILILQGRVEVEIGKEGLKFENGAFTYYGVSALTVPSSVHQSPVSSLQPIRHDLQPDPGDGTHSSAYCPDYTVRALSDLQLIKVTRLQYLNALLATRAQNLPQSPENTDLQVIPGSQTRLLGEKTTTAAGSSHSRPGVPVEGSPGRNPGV
Substance,"response ([1]; 1 µM untagged competitor, parent: est. 15) [%]","response ([1]; 10 µM untagged competitor, parent: est. 11) [%]",Kd [2] [nM]
non-fluorescence protein-tagged PRL2 (from UniProt Q12974-1) C107E,97,76,
CNNM3 (from UniProt Q8NE01),,,2800
